Source: patent US20150267232A1, “IN VIVO AND IN VITRO CARBENE INSERTION AND NITRENE TRANSFER REACTIONS CATALYZED BY HEME ENZYMES” (California Institute of Technology, priority 2012, published 2015)

B1: H2-5-F10: 9-10A TS + F87V, L75A, I263A, T268A, L437A (protein, listed as Bacillus megaterium)
chain: TIKEMPQPKTFGELKNLPLLNTDKPVQALMKIADELGEIFKFEAPGRVTRYLSSQRLIKEACDESRFDKNLSQAAKFARDFAGDGLVTSWTHEKNWKKAHNILLPSFSQQAMKGYHAMMVDIAVQLVQKWERLNADEHIEVSEDMTRLTLDTIGLCGFNYRFNSFYRDQPHPFIISMVRALDEVMNKLQRANPDDPAYDENKRQFQEDIKVMNDLVDKIIADRKARGEQSDDLLTQMLNGKDPETGEPLDDGNIRYQIITFLAAGHEATSGLLSFALYFLVKNPHVLQKVAEEAARVLVDPVPSYKQVKQLKYVGMVLNEALRLWPTAPAFSLYAKEDTVLGGEYPLEKGDEVMVLIPQLHRDKTVWGDDVEEFRPERFENPSAIPQHAFKPFGNGQRACIGQQFALHEATLVLGMMLKHFDFEDHTNYELDIKETATLKPKGFVVKAKSKKIPLGGIPSPSTEQSAKKVRKKAENAHNTPLLVLYGSNMGTAEGTARDLADIAMSKGFAPQVATLDSHAGNLPREGAVLIVTASYNGHPPDNAKQFVDWLDQASADEVKGVRYSVFGCGDKNWATTYQKVPAFIDETLAAKGAENIADRGEADASDDFEGTYEEWREHMWSDVAAYFNLDIENSEDNKSTLSLQFVDSAADMPLAKMHGAFSTNVVASKELQQPGSARSTRHLEIELPKEASYQEGDHLGVIPRNYEGIVNRVTARFGLDASQQIRLEAEEEKLAHLPLAKTVSVEELLQYVELQDPVTRTQLRAMAAKTVCPPHKVELEALLEKQAYKEQVLAKRLTMLELLEKYPACEMKFSEFIALLPSIRPRYYSISSSPRVDEKQASITVSVVSGEAWSGYGEYKGIASNYLAELQEGDTITCFISTPQSEFTLPKDPETPLIMVGPGTGVAPFRGFVQARKQLKEQGQSLGEAHLYFGCRSPHEDYLYQEELENAQSEGIITLHTAFSRMPNQPKTYVQHVMEQDGKKLIELLDQGAHFYICGDGSQMAPAVEATLMKSYADVHQVSEADARLWLQQLEEKGRYAKDVWAG
modifications: cytochrome P450NADPH-P-450 reductase precursor, cytochrome P450 (BM3), CYP102A1
notes: 9-10A TS + F87V, L75A, I263A, T268A, L437A
B2: WT-AxD: WT heme domain + C400D (protein)
chain: TIKEMPQPKTFGELKNLPLLNTDKPVQALMKIADELGEIFKFEAPGRVTRYLSSQRLIKEACDESRFDKNLSQALKFVRDFAGDGLFTSWTHEKNWKKAHNILLPSFSQQAMKGYHAMMVDIAVQLVQKWERLNADEHIEVPEDMTRLTLDTIGLCGFNYRFNSFYRDQPHPFITSMVRALDEAMNKLQRANPDDPAYDENKRQFQEDIKVMNDLVDKIIADRKASGEQSDDLLTHMLNGKDPETGEPLDDENIRYQIITFLIAGHETTSGLLSFALYFLVKNPHVLQKAAEEAARVLVDPVPSYKQVKQLKYVGMVLNEALRLWPTAPAFSLYAKEDTVLGGEYPLEKGDELMVLIPQLHRDKTIWGDDVEEFRPERFENPSAIPQHAFKPFGNGQRADIGQQFALHEATLVLGMMLKHFDFEDHTNYELDIKETLSLKPKGFVVKAKSKKIPLGGIPSPST
modifications: synthetic cytochrome P450-BM3 variant WT-AxD (heme)
notes: WT heme domain + C400D

Experiments:
Assay type in all cases: biochemical
[1] = P450BM3 compilation plate screen (GC, cyclopropane peaks); settings: P450BM3 variants
[2] = N—H insertion, aniline with ethyl diazo acetate (EDA)
From the text: We have found a variety of P450 variants to be general catalysts for carbenoid N—H insertion. We combined aniline with EDA in the presence of a reductant (Na2S2O4) under argon atmosphere and tested the mixture with seven P450BM3 variants previously identified as competent catalysts for cyclopropanation (Coelho, P. et al., Science. 2013, 339, 307-310). In choosing this set of P450s, we hypothesized that cyclopropanation activity could correlate with ability to generate the iron-carbenoid intermediate that is also necessary for N—H insertion. Whereas wild type BM3 (WT-BM3 (SEQ ID NO:1), Table 20, entry 1) provided only trace amounts of the desired product (4.3), a few variants gave 4.3 in good yields after 12 h at room temperature. In particular, variant H2-5-F10 which is derived from a thermostable P450BM3 lineage (Lewis, J. C. et al. ChemBioChem, 2010, 11, 2502-2505) and contains 15 mutation from WT-BM3 (SEQ ID NO:1), formed 4.3 in 47% yield and 473 turnovers (TTN) using 0.1% protein relative to EDA (entry 7). […] In contrast, when 1 mol % of the isolated hemin prosthetic group was used as catalyst, the single and double insertion products were produced in a 3.5 to 1 ratio (with a total product yield of 51%).
A representative procedure for P450-catalyzed N—H insertion is as follows. To an unsealed crimp vial, 60 μL of a P450 solution (67 or 133 μM) was added and the vial was sealed. A 12.5 mM solution of sodium dithionite in phosphate buffer (0.1 M, pH=8.0) was degassed by bubbling with argon in a 6 mL crimp-sealed vial. The headspace of the 2 mL vials containing P450 solution were flushed with argon (no bubbling). The buffer/dithionite solution (360 μL) was then added to each reaction vial via syringe, and the gas lines were disconnected from the vials. 10 μL of an 800 mM stock of aniline was added via a glass syringe, followed by 10 μL of a 340 mM stock of EDA (both stocks in MeOH). The reaction vials were then placed in a tray on a plate shaker and left to shake at 40 rpm. The final concentrations of the reagents were typically: 20 mM aniline, 8.5 mM EDA, 10 mM Na2S2O4, and 10 or 20 μM P450. After 12 h at 25° C., the vials were removed from the shaker and uncapped and 1 mL of cyclohexane was added, followed by 20 μL of a 20 mM solution of phenethyl alcohol (internal standard). The mixture was transferred to a 1.5 mL Eppendorf tube and vortexed and centrifuged (13,000×g, 1 min.). The organic layer was dried over sodium sulfate if necessary then analyzed by GC, with comparison to an authentically prepared sample that has been verified by proton NMR ([…], Varian, CDCl3).
Substitution is well-tolerated on the aniline partner on both the ortho and para positions. Reactions were analyzed by a Shimadzu GC with FID detector and J&W HP-5 column (30 m×0.32 mm, 0.25 μm film) and calibrated to an independently prepared sample of each product using phenethyl alcohol as internal standard. Reaction of aniline and EDA was also performed in milligram scale without any organic cosolvent to provide 4.3 in 65% isolated yield.
Calibration curves were plotted as follows. Yields of N—H insertion products were determined using calibration curves made with independently synthesized standards that have been verified by proton NMR, with comparison to known literature data (Baumann, L. K. et al. Organometallics. 2007, 26, 3995-4002; Anding, B. J. et al. Organometallics. 2013, 32, 2599-2607). Two stock solutions of product were made at 160 mM and 40 mM. To four or five samples containing 380 μL of buffer, product was added from either of the stock solutions such at a final concentration of 0.5-8.0 mM in 400 μL was obtained. 20 μL of internal standard was added to each eppendorf tube, then 1 mL of cyclohexane was added and the tubes were vortexed and centrifuged (13,000 ×g, 30 seconds). The organic layer was then analyzed by GC. The ratio of the areas under the internal standard and product peaks were plotted against the concentration for each solution. […]

[3] = N—H insertion, aniline with ethyl 2-diazopropanoate; settings: protein 20 μM, diazo 10.0 mM, aniline 20 mM
Experimental: The reactions shown in FIG. 37A were carried out with protein (20 μM), ethyl diazo acetate (8.5 mM), aniline (20 mM) and Na2S2O4 (10 mM) in phosphate buffer (pH 8) and allowed to shake at room temperature for 12 h. Yields are reported in parenthesis and TTN are presented in italics. Yields were determined by GC calibrated for each product. An isolated yield of 65% for compound 4.3 was determined for the milligram scale reaction run as follows: 25 mM EDA, 25 mM aniline, 25 μM protein, and 25 mM Na2S2O4. The reaction producing compounds 4.5 and 4.10 were carried out with protein (20 μM), ethyl diazo acetate (10.0 mM), aniline (20 mM) and Na2S2O4 (10 mM).
While substituted diazo compounds can also be used for insertion, the yield from N—H insertion of ethyl 2-diazopropanoate into aniline is only 26% (product 4.5). To improve efficiency of this reaction, we examined the reaction of ethyl 2-diazopropanoate with a variety of axial mutants. In particular, the axial mutant WT-AxA provided the desired product in 83% yield, compared to 8% yield and 1.7% yield with axial mutant WT-AxS and WT-BM3 heme domain, respectively (FIG. 37B).
The reactions shown in FIG. 37B were carried out with 10 μM catalyst loading, 20 mM aniline, 10 mM Na2S2O4 and 10 mM ethyl 2-diazopropanoate as described above. For the final entry in FIG. 37B, whole cells expressing BM3-CIS-T438S at 2.5 μM were used. See, U.S. Provisional Application No. 61/711,640 for the procedure for catalysis with whole cells.

[4] = N—H insertion, diethyl amine and 4.11 (lidocaine synthesis); settings: GC-MS
Experimental: Diazo amides are also competent substrates for this reaction, and alpha-amino amides like 4.10 (FIG. 37A) can be produced in moderate yields. This transformation is particularly valuable because diazo amides can give rise to important building block compounds like diamines Additionally, this transformation can be used for the synthesis of lidocaine, which we were able to prepare using diethyl amine and 4.11 in the presence of H2-5-F10 (Scheme 1). […] (hold 1 min), 100-140° C. (6° C./min), 140-260° C. (20° C./min), 260° C. (hold 3 min)

[5] = Intramolecular carbene C—H insertion, substrate 4.1a
Experimental: (§1) Yield of product 4.22b was established after calibration with phenethyl alcohol as an internal standard. The reaction is not catalyzed by the WT-BM3 heme domain or hemin at 5% catalyst loading.
A representative procedure for P450-catalyzed C—H insertion is as follows: A vial containing WT-AxD (20 μL, 200 μM) was sealed with a teflon cap and the headspace of this vial was purged with argon for 5 min. Concurrently, a solution of sodium dithionite (11 mM in phosphate buffer pH=8) was degassed for a minimum of 5 min and 360 μL of this solution was transferred to the vial containing protein. The gas lines were disconnected from the vials. The substrate 4.1a or 4.1b was then added as a solution (20 μL, 200 mM). Final concentrations of all components were: 10 uM enzyme, 10 mM substrate, and 10 mM dithionite. […]
(§2) The mixture was extracted with 1 mL cyclohexane and analyzed by GC-MS or GC. GC-MS was performed on a Shimadzu TQ8030 GC-MS with ion count detector and J&W HP-5 column (30 m×0.32 mm, 0.25 μm film) using the following method: 90° C. (hold 2 min), 90-190° C. (20° C./min), and 190-230 (40° C./min)

[6] = Intramolecular carbene C—H insertion, substrate 4.1b; settings: 10 mM 4.1b, 10 uM P450, 10 mM Na2S2O4; product 4.2b
Experimental: as §1
A representative procedure for P450-catalyzed C—H insertion is as follows: A vial containing WT-AxD (20 μL, 200 μM) was sealed with a teflon cap and the headspace of this vial was purged with argon for 5 min. Concurrently, a solution of sodium dithionite (11 mM in phosphate buffer pH=8) was degassed for a minimum of 5 min and 360 μL of this solution was transferred to the vial containing protein. The gas lines were disconnected from the vials. The substrate 4.1a or 4.1b was then added as a solution (20 μL, 200 mM). Final concentrations of all components were: 10 uM enzyme, 10 mM substrate, and 10 mM dithionite. The reaction vials were then placed in a tray on a plate shaker and left to shake at 40 rpm for 12 h then 20 μL phenethyl alcohol (20 mM) was added as an internal standard.
as §2

| Molecule | ee (cis) ([1]; (R,S)-(S,R), chiral β-CDX GC) | de ([1]; diastereomeric excess = ([cis] − [trans])/([cis] + [trans])) | Absolute activity ([1]; sum of the area of the cyclopropane peaks over the area of the internal standard) | double insertion product ([2]; GC-MS and 1H NMR, milligram-scale reactions) | isolated yield of 4.3 ([2]; milligram scale, 25 mM EDA, 25 mM aniline, 25 μM protein, 25 mM Na2S2O4, no organic cosolvent) [%] | TTn ([2]; protein 10 uM, EDA 8.5 mM, aniline 20 mM, Na2S2O4 10 mM, 12 h) | % Yield ([2]; protein 10 uM, EDA 8.5 mM, aniline 20 mM, Na2S2O4 10 mM, 12 h, product 4.3) [%] | yield of product 4.5 [3] [%] | production of lidocaine [4] | Yield % ([5]; 10 mM 4.1a, 10 uM P450, 10 mM Na2S2O4, product 4.2a) [%] | lactone formation via C—H bond insertion ([5]; substrates 4.1a and 4.1b, 10 μM variant or hemin at 5% catalyst loading, 16 h) | Yield % [6] [%] |
| --- | --- | --- | --- | --- | --- | --- | --- | --- | --- | --- | --- | --- |
| B1 | −56 | −46 | 0.1412 | No double insertion product was observed | 65 | 473 | 47 | 26 | Production of lidocaine was observed |  |  |  |
| B2 |  |  |  |  |  |  |  |  |  | 14 | lactone formation | 4 |
